Our source for the stoichiometry N values is publication PMC5595413.

“And” between values parts separate entries of the source, which are not always exact repeats. Equal values may be shown once.

In experiment [1] the target is C41S SqrR (R. capsulatus). Briefly: SEC + cross-linking.
For experiment [2], the target named is C107S SqrR (R. capsulatus). Briefly: SEC + cross-linking.

What is called stoichiometry N is a count of units in the complex or per binding partner. Regarding C41S SqrR (natural protein), in experiment [1], the stoichiometry N worked out at 2. Consider C107S SqrR (natural protein), for which the stoichiometry N in experiment [2] is 2 and 4.
